B1: GLP1R-59-241 (antibody, part only; not given: light chain, part only)
heavy: QVQLVQSGAEVKKPGSSVKVSCKASGGTFSDYAISWVRQAPGQGLEWMGGIIPIFGTTNYAQKFQGRVTITADESTSTAYMELSSLRSEDTAVYYCAKHMSMQGSVAGGTFTSDVSSYLEGQAAKEFIAWLVKGGPSFIRADLVGDAFDVWGQGTLVTVSSASASTKGPSVFPLAPCSRSTSESTAALGCLVKDYFPEPVTVSWNSGALTSGVHTFPAVLQSSGLYSLSSVVTVPSSNFGTQTYTCNVDHKPSNTKVDKTVERKCCVECPPCPAPPVAGPSVFLFPPKPKDTLMISRTPEVTCVVVDVSHEDPEVQFNWYVDGVEVHNAKTKPREEQFNSTFRVVSVLTVVHQDWLNGKEYKCKVSNKGLPAPIEKTISKTKGQPREPQVYTLPPSREEMTKNQVSLTCLVKGFYPSDIAVEWESNGQPENNYKTTPPMLDSDGSFFLYSKLTVDKSRWQQGNVFSCSVMHEALHNHYTQKSLSLSPG
B2: GLP1R-59-243 (antibody, part only; not given: light chain, part only)
heavy: QVQLVQSGAEVKKPGSSVKVSCKASGGTFSTYGINWVRQAPGQGLEWMGGIIPIFGTANYAQKFQGRVTITADESTSTAYMELSSLRSEDTAVYYCARANQHFFGKGDNLAARDFINWLIQTKITDGSNPGYHYYGMDVWGQGTLVTVSSASASTKGPSVFPLAPCSRSTSESTAALGCLVKDYFPEPVTVSWNSGALTSGVHTFPAVLQSSGLYSLSSVVTVPSSNFGTQTYTCNVDHKPSNTKVDKTVERKCCVECPPCPAPPVAGPSVFLFPPKPKDTLMISRTPEVTCVVVDVSHEDPEVQFNWYVDGVEVHNAKTKPREEQFNSTFRVVSVLTVVHQDWLNGKEYKCKVSNKGLPAPIEKTISKTKGQPREPQVYTLPPSREEMTKNQVSLTCLVKGFYPSDIAVEWESNGQPENNYKTTPPMLDSDGSFFLYSKLTVDKSRWQQGNVFSCSVMHEALHNHYTQKSLSLSPG
B3: GLP1R-3 (antibody, from a related filing, V domains shown, part only)
VH: QVQLVESGGGVVQPGRSLRLSCAASGFTFSSYGMHWVRQAPGKGLEWVSFISYDESNKYYADSVKGRFTISRDNSKNTLYLQMNSLRAEDTAVYYCAKHMSMQEGAVTGEGQAAKEFIAWLVKGRVRADLVGDAFDVWGQGTLVTVSS
VL: QSVLTQPPSVSAAPGQKVTISCSGSSSNIADNYVSWYQQLPGTAPKLLIYDNNKRPSGIPDRFSGSKSGTSATLGITGLQTGDEADYYCGTWDNYLGAGVFGGGTKLTVLG

Target: glucagon-like peptide-1 receptor (GLP1R) (Homo sapiens (Human)) (UniProt P43220)
Sequence (P43220 24-463): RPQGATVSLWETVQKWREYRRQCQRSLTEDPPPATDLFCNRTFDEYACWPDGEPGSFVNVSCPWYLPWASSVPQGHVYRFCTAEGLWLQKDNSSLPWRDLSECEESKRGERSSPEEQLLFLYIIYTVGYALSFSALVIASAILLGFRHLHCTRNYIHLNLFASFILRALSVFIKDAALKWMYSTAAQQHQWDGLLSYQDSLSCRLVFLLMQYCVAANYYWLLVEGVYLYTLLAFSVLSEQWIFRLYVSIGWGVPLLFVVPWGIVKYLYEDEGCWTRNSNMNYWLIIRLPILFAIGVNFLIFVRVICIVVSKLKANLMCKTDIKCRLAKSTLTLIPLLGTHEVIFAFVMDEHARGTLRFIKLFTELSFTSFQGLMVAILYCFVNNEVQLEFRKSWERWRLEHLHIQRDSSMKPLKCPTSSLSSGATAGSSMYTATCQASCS
Assay: cell-based or functional assay

| Binder | EC50 (nM) of the IgG as agonist, functional assay on GLP-1R overexpressing cells [nM] | EC50 (nM) of Exendin-4 induced cAMP activity with the antibody [nM] | EC50 (nM) of GLP1 (7-36)-induced signaling with GLP1R IgG (+100 nM) [nM] | fold difference of the EC50 against no antibody [fold] | fold-diff of the Exendin-4 EC50 against Exendin-4 alone [fold] |
| --- | --- | --- | --- | --- | --- |
| B1 | 0.722 |  |  |  |  |
| B2 | 0.821 |  |  |  |  |
| B3 |  | 0.63 | 1.31 | 2.2 | 5.4 |

Reference: US20230193513A1
